Assay: soluble on expression in E. coli; label from the status in PepcDB or PDB records

Row | Sequence | soluble on expression in E. coli
1 | GPLGSPILELKEKIQPEILELIKQQRLNRLVEGTCFRKLNARRRQDKFWYCRLSPNHKVLHYGDLEESPQGEVPHDSLQDKLPVADIKAVVTGKDCPHMKEKGALKQNKEVLELAFSILYDSNCQLNFIAPDKHEYCIWTDGLNALLGK | soluble
2 | MTFLIKRETQVDQILRDIRAVVNQMVPKEAKITEIEFEGPELVIYVKNPEAIMKDGELIKDLAKVLKKRISVRPDPEVLLPPEEAEKLIFEIVPKEAEITNIAFDPSVGEVLIEAKKPGLVIGKNGETLRLITQKVKWAPKVVRTPPLQSQTIYSIRQILQTESKDRRKFLRQVGRNIYRKPEYKSRWIRITGLGGFREVGRSALLVQTDESFVLVDFGVNVAMLNDPYKAFPHFDAPEFQYVLREGLLDAIIITHAHLDHCGMLPYLFRYNLFDGPIYTTPPTRDLMVLLQKDFIEIQQSNGQDPLYRPRDIKEVIKHTITLDYGEVRDISPDIRLTLHNAGHILGSAIVHLHIGNGLHNIAITGDFKFIPTRLLEPANAKFPRLETLVMESTYGGANDIQMPREEAEKRLIEVIHNTIKRGGKVLIPAMAVGRAQEVMMVLEEYARIGGIEVPIYLDGMIWEATAIHTAYPEYLSRRLREQIFKEGYNPFLSEIFHPVANSRERQDIIDSNEPAIIIASSGMLVGGPSVEYFKQLAPDPKNSIIFVSYQAEGTLGRQVQSGIREIPMVGEEGRTEVIKVNMEVHTIDGFSGHADRRELMNYVAKVRPRPERIITVHGEPQKCLDLATSIHRKFGISTRAPNNLDTIRLR | soluble
3 | MGSDKIHHHHHHMDLTTAQVSRLISELETRLGTKLIQRSTRQQALTDIGATYAERCRQVISMVDEAEAEVTGTASKPKGRLRVLSMGSFGHHYVFPVMAEFCKHYPELTVEYTTSQYVPDLLAKGVDVSLYLTESLTDSRFVARRIGTIFSVLCASPAYLEKHGVPKSPEDLKNHACLRLVNPSITPDWHLLNANGESYQIDIGGQLIADNPELLLDVVQQDMGVALLPMFSALDAVQNGRLCHILPEWRSPDIGVYTLLPSRHFIDAKTRAWLDWVEEYISPKIEMDASYFYK | not soluble
4 | MASSINGRKPSEIFKAQALLYKHIYAFIDSMSLKWAVEMNIPNIIQNHGKPISLSNLVSILQVPSSKIGNVRRLMRYLAHNGFFEIITKEEESYALTVASELLVRGSDLCLAPMVECVLDPTLSGSYHELKKWIYEEDLTLFGVTLGSGFWDFLDKNPEYNTSFNDAMASDSKLINLALRDCDFVFDGLESIVDVGGGTGTTAKIICETFPKLKCIVFDRPQVVENLSGSNNLTYVGGDMFTSIPNADAVLLKYILHNWTDKDCLRILKKCKEAVTNDGKRGKVTIIDMVIDKKKDENQVTQIKLLMDVNMACLNGKERNEEEWKKLFIEAGFQHYKISPLTGFLSLIEIYP | soluble
5 | MQKVRLIVSGRVQGVGFRYATHTLALDIGDIYGRVWNNNDGTVEILAQSKDSDKIATFIQEVRKGPSKWAKVTYVDVTMANFEDFQDFQIGK | not soluble
6 | MSLDIARIAVHESVAKACPLEAMVAALQGPDVRVETVGDDASFDASDCVVTFSPREAFLDAAWVHGIRAGYDEFDVDAYEAAGTVLTNSTGIHGDTVPETVVGYLTAFARRLHVYRDRQRDNDWTQEPYDAPFTLTGEQVCVVGLGTIGQGVADRTDALGMDVVGVRRSGDPAENVERVYTPDELDAAVADARFVVLCCPLTEETEGMVDAALLAQMRADSYLVNVARGPVVVEDALLNALDTGTIAGAALDAHWAEPLPDDHPLWNHESAIVTPHVAAATSRYHEDIAALVRENVERATRGESLRNRVAEGHHHHHH | not soluble
7 | MKEGKWFASANNQNKFLDPRERGNILNYLKVCLLLARAVRRMHAAGLCHSDLSYKNVLIDPEQGHACIIDVDGLVVPGKFPPDVVGTPDFIAPEVVKTSHLLKEDPQRILPNITTDRHALSVLIYMYLFYRHPLRGGKIHDMDDEVRDESLAMGERALFIEHPTDRSNAVKLNQVKPSSLPWADPQKVPYTIMGPYLTQLFEKAFIDGLHDPSKRPTADEWETALVKTVDLIQPCQNTACEQKWYVFSGKTKPVCPYCLEHHHHHH | not soluble
8 | SNQEKLQRTMIHFNNPEVQAFLAVNTFTITGHGETKQLTEMLRSVLNQLAAVSLTSLRRLAEALPKQSVDGKAPLATGEDDDDDEVPGIMENFDEASKNEAN | soluble
9 | MAHHHHHHMEAVFYAFASFGTAPTKEMDNAHFSKMLKEAKIIGKTFTSTDADLLFNKIKAKGARKITFTEFNTRALPDIATKLKMTPEQVAEILTKASPASNSTKAEAVKFHDDKNLYTGVYKAGGPTNVDRNAGSLSGVVDRRVDQVDVRGTTSSQK | soluble
10 | MSGASSITATEPYRDVQIRPAVAPDVARVAAIDEAATGEAKPRYWQSLFENFSQARAGCRAFLIAELKGEVVGFICGEVRDFEFGAESCGWVFALTVDPAIRVNSIGTQLFEEICQIFTQAGVRKVRTMIEHDNQLVMAFFRSQGLMVGRFIGMEKNLD | soluble
11 | MSLSDVSRILKEARSQSRLTTLDYAEQIFDDFMELHGDRHFADDGAIVGGIGLLDGQAVTVIGVQKGKNLQDNLNRNFGQPNPEGYRKALRLMKQAEKFKRPVVTFINTAGAYPGIGAEERGQGEAIARNLLEMSDLKVPIIAIIIGEGGSGGALALAVADKVWMLEHTMYAVLSPEGFASILWKDGSRSIEAAELMKITAGELLKMEVVDKVIPEHGYFSSEIIQMLKTNLIEELKNLDQYPLNDLLEKRYQRFRKYEGHHHHHH | soluble
12 | MGSDKIHHHHHHMPAAATLADWKAASVPDFLAERSRQELARLGNPGWWGPPDLEALAELMQLAAAEGWRILPAGRGTRLDWGGLGHPVDAVISTAACDRLIEHAAADLTVTVEAGMTLGQLQTILAETGQWLPFDPIAGESSSLGALVSTGMSGSLRHRYGSLRDFLIGITFLRHDGQWAKGGGRVVKNVAGYDMMKLLHGAWGSLGLIGKLTFRTYPLPNAWGTIACQGDREAILQLRSQLVRSDLTPVAFDLLSPAAAAELELRSQWTVLLRFGSVAASVQEQQQVVELQATRLGLAAMTVAEPVWGQLNQSFEPRSRSATLIKFALLPSQLPCLLAELEAIAPTALGRVHAASGAGWLVWPEAEPTVETLLRLRRHCEVAEGFLSVLAASVSLKQQLDIWGYPGQGLAVMRAIKRQFDPQSRLAPGRFLAGLEE | not soluble
13 | MAHHHHHHMHVQARYQRITEAYAVLSDPEKRRAYDAKHGVNFQSRLARLQTVIGHHNTMATQRSTTSCKTACLASTSSPTTDEHDAQHLHAASHKDSAERTVGDDDDEDYDPNDVLAPPRGAPHQGRSSDFYSDDSRDAHGEGDYIARLFSLHLRVGAEAAPKTRNGVPVVQYQAITLTRAYSPPESPYARTWGLVFKKNELVDLDGENLEELARITGLAAVPFPSVVQQINYTMAGTDDRLAAPAISALRIRVHTGLSGEPCHGPNGVDQY | not soluble
14 | QCYHGNGQSYRGTFSTTVTGRTCQSWSSMTPHRHQRTPENYPNDGLTMNYCRNPDADTGPWCFTMDPSIRREYCNLTRC | soluble
15 | EAVHRLDLILCNKTAYQEVFKPENISLRNKLRELCVKLMFLHPVDYGRKAEELLWRKVYYEVIQLIKTNKKHIHSRSTLECAYRTHLVAGIGFYQHLLLYIQSHYQLELQCCIDWTHVTDPLIGCKKPVSASGKEMDWAQMACHRCLVYLGDLSRYQNELAGVDTELLAERFYYQALSVAPQIGMPFNQLGTLAGSKYYNVEAMYCYLRCIQSEVSFEGAYGNLKRLYDKAAKMYHQLKKCETRKLSPGKKRCKDIKRLLVNFMYLQSLLQPKSSSVDSELTSLCQSVLEDFNLCLFYLPSSPNLSLASEDEEEYESGYAFLPDLLIFQMVIICLMCVHSLERAGSKQYSAAIAFTLALFSHLVNHVNIRLQAELEEGENPVPAFQSDGTDEPESKEPVEKEEEPDPEPPPVTPQVGEGRKSRKFSRLSCLRRRRHPPKVGDDSDLSEGFESDSSHDSARASEGSDSGSDKSLEGGGTAFDAETDSEMNSQESRSDLEDMEEEEGTRSPTLEPPRGRSEAPDSLNGPLGPSEASIASNLQAMSTQMFQTKRCFRLAPTFSNLLLQPTTNPHTSASHRPCVNGDVDKPSEPASEEGSESEGSESSGRSCRNERSIQEKLQVLMAEGLLPAVKVFLDWLRTNPDLIIVCAQSSQSLWNRLSVLLNLLPAAGELQESGLALCPEVQDLLEGCELPDLPSSLLLPEDMALRNLPPLRAAHRRFNFDTDRPLLSTLEESVVRICCIRSFGHFIARLQGSILQFNPEVGIFVSIAQSEQESLLQQAQAQFRMAQEEARRNRLMRDMAQLRLQLEVSQLEGSLQQPKAQSAMSPYLVPDTQALCHHLPVIRQLATSGRFIVIIPRTVIDGLDLLKKEHPGARDGIRYLEAEFKKGNRYIRCQKEVGKSFERHKLKRQDADAWTLYKILDSCKQLTLAQGAGEEDPSGMVTIITGLPLDNPSVLSGPMQAALQAAAHASVDIKNVLDFYKQWKEIG | soluble
16 | MGSDKIHHHHHHMPESAEAQVKEALLALLKDRDIQHITMKEIAEKAKVSRGSLYLYYEDKFSIIEDVIEDMKEGLGKALFDAFSHMDTLHLNKKRQTVHPTLSFVHEHRSFFSVMMNRGHFHRFFKDVFQQDVLLAPIHVNLTPIERDIYGHYRALYTYAIILYWLNEDAAASPEAISQKVWELVSQKRFYWLFGKAVPGEREKEKQIDRRVVRTREALQKAFLDVLAEKQDYAGITISDITRKSNIRRATFYDHYANKEELLQTMIQRSCAEIIDHLTIASSPNEFSLKEAEKALAILLSALSNMPIVHFLNREWGVPHVIPDMFKALESFYLHQQTDIHAEKKLYAHYVSAMIIGLLLYRLDEGKAHPPEVLAREFLQFLDVKKYKVVLL | not soluble
17 | MSLEFLMKKVVFALSALAVVSTSAFAAESGDGTIKFTGEIVDAPCVVSTDSQNQEVVLGQVKKNIFKAIGDKSSSKPFQIKLEDCDITSNTKVNVSFNGVGDTDDATLVSVNTEAGAATGVGIGIYDNANKLVEMNTGKSTTTLAAGQTVLYYTANYVATKDTVTTGYGNAEVDFNLSYEEGGSHHHHHH | soluble
18 | MAATMNEGNAQHAWDLMKKITFAMLATRDGEKIRSRPMAAYVRPEEGAIYFLTDVRRHKDEEIAQDHHVNLGFANASAQKYVSVTGYAAISNDRAKIKELFGTEAKAWWDSADDPNIRVLKVTPEEAEYWDSPGSLISYAKMMVAAATGNRPDLGENAKVAI | not soluble
19 | MLMNNNNVYSLNNFDFLARSFARMQAEGRPVDIQAVTGNMDEEHRDWFCKRYALYCQQATQAKRLELEH | not soluble
20 | MGSDKIHHHHHHMTKSKNNPGRGNTIRESNTMKVMEEIREKIRKAIKEGVSLREIEEIILQEAMMEEREAYLEVEDDHKNGTYFRYLGTGDGVLRLRVPRTRKGGFRPKILPEKYERTSPDYEDFLQQLVLSGMTPSQVKAVLAAKGIPYSEIVMNRVAERISNKLKEYKSRELPHDLLALYIDVKIVKVRISESIMERAIYIAIGVDLEGNKFVLDYEVRDREDLDGWKSFLSGLVSRGVSRVDVIVSDDFSGLDRVVSTLFPSSQHQLCITHMVRNLMRVLPDKEKEELMIRVRDLKSSRNVEEGRKAILSLSQLVQPFSPARAKRLLDAADKYCSFLNFPREIRHYLYTNNTSESFNLTLARFEEELGGYFPSLRSLEVYLYVSIHESNSRWKFRPMSVIRHYSYHLKQLHASRFQVSLDEDF | not soluble
21 | MEICADELKKVLNTVVNKHKDLKTHGFTLESCRSMIALMDTDGSGKLNLQEFHHLWNKIKAWQKIFKHYDTDQSGTINSYEMRNAVNDAGFHLNNQLYDIITMRYADKHMNIDFDSFICCFVRLEGMFRAFHAFDKDGDGIIKLNVLEWLQLTMYA | soluble

— the DeepSol protein solubility set
